From paper PMC1669733

What was measured:
[1] = target: His-Rep 1–362 (full-length Rep protein of Mungbean yellow mosaic India virus) (Mungbean yellow mosaic India virus (MYMIV)); experiment: sucrose gradient centrifugation
[2] = target: His-Rep 120–362 (Mungbean yellow mosaic India virus (MYMIV)); experiment: sucrose gradient centrifugation

Substance | stoichiometry N [1] | stoichiometry N [2]
His-Rep 1–362 (full-length Rep protein of Mungbean yellow mosaic India virus) (enzyme) | 24 | 
His-Rep 120–362 (domain or fragment) |  | 24
